Assay results reported in article PMC3716637, “Characterization of the Recombinant Exopeptidases PepX and PepN from Lactobacillus helveticus ATCC 12046 Important for Food Protein Hydrolysis” (PLoS ONE, 2013).
Where two headings read alike, the source gives them in different places. Each block holds one molecule with its values, some of them ahead of it. Residues, ends and D or L forms follow the SMILES beside them.

Tests used:
[1] = target: T1, PepN (general aminopeptidase N) (Lactobacillus helveticus, UniProt S4THV9); assay: product inhibition of H-Ala-pNA hydrolysis; […] residual activity at […]; assay type: biochemical; conditions: read-out: % residual activity at 10 mM
T1 construct: His-tagged recombinant full-length PepN (monomer)
T1 sequence (S4THV9 1-844): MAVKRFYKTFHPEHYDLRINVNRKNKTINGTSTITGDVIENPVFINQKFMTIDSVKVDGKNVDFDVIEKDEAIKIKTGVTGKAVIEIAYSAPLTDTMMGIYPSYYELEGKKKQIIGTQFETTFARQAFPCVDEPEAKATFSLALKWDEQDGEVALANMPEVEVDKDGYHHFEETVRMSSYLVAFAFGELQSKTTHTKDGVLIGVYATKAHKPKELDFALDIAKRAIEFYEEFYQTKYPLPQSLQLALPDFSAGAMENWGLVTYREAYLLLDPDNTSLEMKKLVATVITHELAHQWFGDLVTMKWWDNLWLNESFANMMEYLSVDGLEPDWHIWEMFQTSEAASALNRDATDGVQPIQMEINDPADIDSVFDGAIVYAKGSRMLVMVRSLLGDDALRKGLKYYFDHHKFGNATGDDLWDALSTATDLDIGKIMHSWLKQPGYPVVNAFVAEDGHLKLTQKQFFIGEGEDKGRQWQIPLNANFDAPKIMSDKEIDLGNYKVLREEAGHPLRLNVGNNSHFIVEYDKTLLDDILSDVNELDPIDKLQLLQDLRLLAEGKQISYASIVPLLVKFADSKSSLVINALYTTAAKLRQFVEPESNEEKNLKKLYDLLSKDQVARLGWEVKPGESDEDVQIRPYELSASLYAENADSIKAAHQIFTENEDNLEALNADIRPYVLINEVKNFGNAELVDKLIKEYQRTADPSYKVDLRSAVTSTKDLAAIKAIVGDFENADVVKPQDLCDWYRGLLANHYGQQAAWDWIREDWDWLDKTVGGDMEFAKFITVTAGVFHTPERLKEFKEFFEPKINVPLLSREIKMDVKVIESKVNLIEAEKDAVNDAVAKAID

[2] = target: T1, PepN (general aminopeptidase N); assay: as above; assay type: biochemical; conditions: read-out: % residual activity at 10 mM; remark: listed apart in the source
[3] = target: T2, PepX (X-prolyl dipeptidyl aminopeptidase) (Lactobacillus helveticus, UniProt Q59485); assay: inhibition of H-Ala-Pro-pNA hydrolysis; […] residual activity at […], […] at […]; assay type: biochemical
T2 construct: His-tagged recombinant full-length PepX (homodimer)
T2 sequence (Q59485 1-793): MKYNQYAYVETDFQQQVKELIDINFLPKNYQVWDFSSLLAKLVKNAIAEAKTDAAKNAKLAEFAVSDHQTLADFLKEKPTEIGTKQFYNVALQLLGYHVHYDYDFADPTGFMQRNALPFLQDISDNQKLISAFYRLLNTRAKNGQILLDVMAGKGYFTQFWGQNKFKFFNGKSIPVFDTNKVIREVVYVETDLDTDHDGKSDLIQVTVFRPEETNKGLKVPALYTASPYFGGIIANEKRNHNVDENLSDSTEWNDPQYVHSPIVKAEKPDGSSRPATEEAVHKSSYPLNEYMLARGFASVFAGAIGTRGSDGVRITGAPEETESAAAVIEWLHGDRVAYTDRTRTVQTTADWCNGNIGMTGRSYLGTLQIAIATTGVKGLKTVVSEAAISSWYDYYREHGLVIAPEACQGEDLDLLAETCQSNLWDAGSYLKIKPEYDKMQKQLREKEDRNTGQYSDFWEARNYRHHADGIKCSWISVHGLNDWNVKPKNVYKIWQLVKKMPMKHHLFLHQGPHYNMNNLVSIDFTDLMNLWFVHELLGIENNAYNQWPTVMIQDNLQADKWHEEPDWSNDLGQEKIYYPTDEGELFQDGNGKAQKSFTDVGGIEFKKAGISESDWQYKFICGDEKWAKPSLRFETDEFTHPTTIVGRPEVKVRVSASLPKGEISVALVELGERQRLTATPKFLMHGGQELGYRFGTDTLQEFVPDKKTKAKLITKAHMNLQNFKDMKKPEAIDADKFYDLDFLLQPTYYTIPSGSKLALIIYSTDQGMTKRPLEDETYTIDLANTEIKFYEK

[4] = target: T2, PepX (X-prolyl dipeptidyl aminopeptidase); assay: product inhibition kinetics with H-Ala-Pro-pNA, Lineweaver-Burk; assay type: biochemical
[5] = substrate: N=C(N)NCCC[C@H](N)C(=O)Nc1ccc([N+](=O)[O-])cc1; assay: purified protein; conditions: Zn2+
[6] = substrate: CC(C)C[C@H](N)C(=O)Nc1ccc([N+](=O)[O-])cc1; assay: purified protein; assay type: biochemical, Lactobacillus helveticus; conditions: Zn2+
[7] = substrate: C[C@H](N)C(=O)Nc1ccc([N+](=O)[O-])cc1; assay: purified protein; assay type: biochemical, Lactobacillus helveticus; conditions: Zn2+
[8] = substrate: NCCCC[C@H](N)C(=O)Nc1ccc([N+](=O)[O-])cc1; assay: purified protein; assay type: biochemical, Lactobacillus helveticus; conditions: Zn2+
[9] = substrate: N[C@@H](Cc1ccccc1)C(=O)Nc1ccc([N+](=O)[O-])cc1; assay: purified protein; assay type: biochemical, Lactobacillus helveticus; conditions: Zn2+
[10] = substrate: C[C@H](N)C(=O)N1CCC[C@H]1C(=O)Nc1ccc([N+](=O)[O-])cc1; assay: enzyme kinetics, p-nitroaniline release, Hanes plot; Km; assay type: biochemical, Lactobacillus helveticus

- remaining activity at 10000 µM [1]: 24%
Molecule: N[C@@H](Cc1ccccc1)C(=O)O [L-Phe]

Molecule: N=C(N)NCCC[C@H](N)C(=O)O [L-Arg]
- remaining activity at 10000 µM [2]: 19%

Molecule: O=S(=O)(F)Cc1ccccc1 [PMSF]
- % residual activity at 10 mM [3]: 11

Molecule: N[C@@H](Cc1ccccc1)C(=O)N1CCC[C@H]1C(=O)O [H-L-Phe-L-Pro-OH] (H-Phe-Pro-OH)
- Ki [4]: 30.1 mM

B1: PepN (general aminopeptidase N) (Lactobacillus helveticus) (protein)
chain: MAVKRFYKTFHPEHYDLRINVNRKNKTINGTSTITGDVIENPVFINQKFMTIDSVKVDGKNVDFDVIEKDEAIKIKTGVTGKAVIEIAYSAPLTDTMMGIYPSYYELEGKKKQIIGTQFETTFARQAFPCVDEPEAKATFSLALKWDEQDGEVALANMPEVEVDKDGYHHFEETVRMSSYLVAFAFGELQSKTTHTKDGVLIGVYATKAHKPKELDFALDIAKRAIEFYEEFYQTKYPLPQSLQLALPDFSAGAMENWGLVTYREAYLLLDPDNTSLEMKKLVATVITHELAHQWFGDLVTMKWWDNLWLNESFANMMEYLSVDGLEPDWHIWEMFQTSEAASALNRDATDGVQPIQMEINDPADIDSVFDGAIVYAKGSRMLVMVRSLLGDDALRKGLKYYFDHHKFGNATGDDLWDALSTATDLDIGKIMHSWLKQPGYPVVNAFVAEDGHLKLTQKQFFIGEGEDKGRQWQIPLNANFDAPKIMSDKEIDLGNYKVLREEAGHPLRLNVGNNSHFIVEYDKTLLDDILSDVNELDPIDKLQLLQDLRLLAEGKQISYASIVPLLVKFADSKSSLVINALYTTAAKLRQFVEPESNEEKNLKKLYDLLSKDQVARLGWEVKPGESDEDVQIRPYELSASLYAENADSIKAAHQIFTENEDNLEALNADIRPYVLINEVKNFGNAELVDKLIKEYQRTADPSYKVDLRSAVTSTKDLAAIKAIVGDFENADVVKPQDLCDWYRGLLANHYGQQAAWDWIREDWDWLDKTVGGDMEFAKFITVTAGVFHTPERLKEFKEFFEPKINVPLLSREIKMDVKVIESKVNLIEAEKDAVNDAVAKAID
notes: His-tagged recombinant full-length PepN (monomer)
- Km [5]: 140 µM
- Km [6]: 170 µM
- Vmax [6]: 51100 µM/min
- Km [7]: 430 µM
- Vmax [7]: 46100 µM/min
- Km [8]: 140 µM
- Vmax [8]: 93100 µM/min
- Km [9]: 150 µM
- Vmax [9]: 15200 µM/min

B2: PepX (X-prolyl dipeptidyl aminopeptidase) (Lactobacillus helveticus) (protein)
chain: MKYNQYAYVETDFQQQVKELIDINFLPKNYQVWDFSSLLAKLVKNAIAEAKTDAAKNAKLAEFAVSDHQTLADFLKEKPTEIGTKQFYNVALQLLGYHVHYDYDFADPTGFMQRNALPFLQDISDNQKLISAFYRLLNTRAKNGQILLDVMAGKGYFTQFWGQNKFKFFNGKSIPVFDTNKVIREVVYVETDLDTDHDGKSDLIQVTVFRPEETNKGLKVPALYTASPYFGGIIANEKRNHNVDENLSDSTEWNDPQYVHSPIVKAEKPDGSSRPATEEAVHKSSYPLNEYMLARGFASVFAGAIGTRGSDGVRITGAPEETESAAAVIEWLHGDRVAYTDRTRTVQTTADWCNGNIGMTGRSYLGTLQIAIATTGVKGLKTVVSEAAISSWYDYYREHGLVIAPEACQGEDLDLLAETCQSNLWDAGSYLKIKPEYDKMQKQLREKEDRNTGQYSDFWEARNYRHHADGIKCSWISVHGLNDWNVKPKNVYKIWQLVKKMPMKHHLFLHQGPHYNMNNLVSIDFTDLMNLWFVHELLGIENNAYNQWPTVMIQDNLQADKWHEEPDWSNDLGQEKIYYPTDEGELFQDGNGKAQKSFTDVGGIEFKKAGISESDWQYKFICGDEKWAKPSLRFETDEFTHPTTIVGRPEVKVRVSASLPKGEISVALVELGERQRLTATPKFLMHGGQELGYRFGTDTLQEFVPDKKTKAKLITKAHMNLQNFKDMKKPEAIDADKFYDLDFLLQPTYYTIPSGSKLALIIYSTDQGMTKRPLEDETYTIDLANTEIKFYEK
notes: His-tagged recombinant full-length PepX (homodimer)
- Km [10]: 1300 µM
